# Measured values: the DeepSol protein solubility set
# Assay: soluble on expression in E. coli; label from the status in PepcDB or PDB records
row,Sequence,soluble on expression in E. coli
1,MIYLFSHAGLRDLRDFIDRSTLFAFDLDGTLAPIVSDPAGIMIPPDVHERLVRLNGTASVAVVTGRARVDAARHLGFAPRFLVGNHGAEGLPGADAAEREFIGLCRGWMTQLGELLPEGEGTGIVMEDKSATLSLHYRNAPDRENAHQRILAAVSRLLPAPRRVSGKLVENLVPAAAPHKGDALRCIMRHLGCARALFVGDDVTDEDVFRLGDEAIFGIRVGNSGGSAARYFIRGQDEMAPLLDEILAVLLEHHHHHH,soluble
2,MKAINIALDGPAAAGKSTIAKRVASELSMIYVDTGAMYRALTYKYLKLNKTEDFAKLVDQTTLDLTYKADKGQCVILDNEDVTDFLRNNDVTQHVSYVASKEPVRSFAVKKQKELAAEKGIVMDGRDIGTVVLPDADLKVYMIASVEERAERRYKDNQLRGIESNFEDLKRDIEARDQYDMNREISPLRKADDAVTLDTTGKSIEEVTDEILAMVSQIK,soluble
3,MKALVAVSAVAVVALLGVSSAQADPEADPGAGEANYGGPPSSPRLVDHTEWAQWGSLPSLRVYPSQVGRTASRRLGMAAADAAWAEVLALSPEADTAGMRAQFICHWQYAEIRQPGKPSWNLEPWRPVVDDSEMLASGCNPGSPEESF,soluble
4,MKAMHMEQKIYKAKFSEYQLADNFINFNYLLKFKLGPEDVRAKGAFSTIFESTMLDWDLQLHKQFAGHILHSRESNWVISLNGSGVRDSYPPLHKLYFKVKAMGSDGSIKKSLKYFIDGLPIAPAERRGRMDHRSYTTLQNTQFERDLSTLIAEAKKKAQTIQLETRLEFKKNDLVDMKYLLGNGAPNMPDSLDYYFDAITNKSRHDLKLKTSDGMHFVMTNKEIVCLASQFFRQHLKDTTTEYTVGRADSVQSIDICLTYMITGIYKKPALLSPKLAFEIFALAMQWKVFEPKVLKNSIEKHCCEELQKNYEDIMYVCNMLIIADDAQFANVQNCCIATLVFYHAHDFIRIFVIGNHPLKERFSRRQEFLRPSLTMQVKRAFAASNESKCFIKFLPAIGED,not soluble
5,MKCLKPSIGPVRGTDGDWKNIMKQFLRCGLAFAWSSVLGSSIAMDSLFGLPVRSTVKANLGALREGYVNIAVHGHSPLLVSEIVKQGRSREFIQMAKEKGALGIQFYGICCSGLSAMYRYGGVIPLSNAIGAELVLGTGAIDLWVADVQDVFPSIMDVAKCFKTTVVTTSDSARLPGAEHYAYDHHHSNLAQTQELAKTIVKRAIESFEARRDVPVFIPNYEVDAEIGFSVEYATSRFGSMDVIAKALQEGKIRGVVNLVGCNNPRVMYEKAIADVARKLIENNILVLTNGCASFPLLKLGYCNVKALEWTGKELREFLEPDLPPVWHMGECLDNARASAFFRALADSLKKDIKDMPFAFASPEWSNEKGVGAALGFRLLGINSYHSVYPPVQGSKNVMKYLFEDTEKTLGAVMIVEVDPLKLADRIISDIDEKRKALMWK,not soluble
6,MKCLVTGGNVKVLGKAVHSLSRIGDELYLEPLEDGLSLRTVNSSRSAYACFLFAPLFFQQYQAATPGQDLLRCKILMKSFLSVFRSLAMLEKTVEKCCISLNGRSSRLVVQLHCKFGVRKTHNLSFQDCESLQAVFDPASCPHMLRAPARVLGEAVLPFSPALAEVTLGIGRGRRVILRSYHEEEADSTAKAMVTEMCLGEEDFQQLQAQEGVAITFCLKEFRGLLSFAESANLNLSIHFDAPGRPAIFTIKDSLLDGHFVLATLSDTDSHSQDLGSPERHQPVPQLQAHSTPHPDDFANDDIDSYMIAMETTIGNEGSRVLPSISLSPGPQPPKSPGPHSEEEDEAEPSTVPGTPPPKKFRSLFFGSILAPVRSPQGPSPVLAEDSEGEGLEHHHHHH,not soluble
7,MKCPRCGREYISSIPPFCICGEELEITYDYSSVDVRKWKRRNPGVWRYKELLPEVKKIITLQEGGTPLIKARISEKINVDVYIKDETRNPTGSFRDRLATVAISYGLPYASNGFIVASDGNAAASVAAYSARAEKECFVVVPRKVDKGKLIQMIAFGARIIRYGDSVDEAIEYARELSKLNGLYNVTPEDNIIGLEGQKTIAFELWEEINPTHVIVPTGSGSYIYSIYKGFKELIKIGVLEKMPRLIAVQTERCNPIAAEILGLKKECKETKALGLYVKNPVMKSRVIRAIKESGGTAVVVNENDIITGEKLLANEGIFAELSSAVVMPALLSLVEKGIIEKGDKVVLVVTGSGLKIGEGGREKFSIGGTKLEILKILEEREMYAYEIWQALGKPLKYQAVHQHIKELQELGLIKEAYRKGKRIYYKLTERGRRLIENLE,soluble
8,MKCVFVTVGTTSFDDLIACVSAPDSLQKIESLGYNRLILQIGRGTVVPEPFSTESFTLDVYRYKDSLKEDIQKADLVISHAGAGSCLETLEKGKPLVVVINEKLMNNHQLELAKQLHKEGHLFYCTCSTLPGLLQSMDLSTLKCYPPGQPEKFSAFLDKVVGLQK,soluble
